The target of assay [1] is human SIRPa expressed by blood monocytes of heterozygous V1/V2 donors (cells carry both SIRPa v1 and SIRPa v2). The experiment in a line: FACS competition on human monocytes of V1/V2 donors; blocked ligand: biotinylated CD47Fc, revealed with streptavidin-PE.
The target is the same in assay [2]. The assay is described as follows: flow cytometry competition, recombinant CD47-Fc on heterozygous V1/V2 monocytes (n=5). A general note: Flow cytometry measures light scatter and fluorescence of single cells or particles in a stream.
For assay [3], the target named is SIRPa v2 (antigen of the ELISA of FIG. 9B) (human) (UniProt P78324). The experiment in a line: ELISA against SIRPa v2; given as ED50. On the technique in general: ELISA stands for enzyme-linked immunosorbent assay.
The target in assay [4] is SIRPa V5 (SNP9 + 10 + 11) recombinant protein, extracellular domain fused with mouse Fc from IgG2a (human; mouse) (UniProt P78324). The experiment in a line: ELISA on immobilised SIRPa variant-mouse Fc, donkey anti-human IgG peroxidase, TMB 450 nm; given as ED50.
Assay [5] addresses SIRPa V7 (SNP14 + ?) recombinant protein, extracellular domain fused with mouse Fc from IgG2a (human; mouse) (UniProt P78324). The description is as above.
Assay [6] has as its target SIRPa V3 (SNP1 + 2 + 3 + 4 + 5 + 6) recombinant protein, extracellular domain fused with mouse Fc from IgG2a (human; mouse) (UniProt P78324). The assay is described as above.
The target in another assay is SIRPv2 (human;mouse) (UniProt P78324). The description is as above.
For assay [7], the target named is SIRPa V1 recombinant protein (extracellular domain fused with mouse Fc from IgG2a) (human; mouse) (UniProt P78324). The assay is described as above.
For assay [8], the target named is SIRPa V4 (SNP8) recombinant protein, extracellular domain fused with mouse Fc from IgG2a (human; mouse) (UniProt P78324). Described as above.
Assay [9] addresses SIRPa V6 (SNP12 + 13) recombinant protein, extracellular domain fused with mouse Fc from IgG2a (human; mouse) (UniProt P78324). Described as above.
Assay [10] deals with SIRPa V8 (SNP15 + 16) recombinant protein, extracellular domain fused with mouse Fc from IgG2a (human; mouse) (UniProt P78324). The assay is described as above.

Here are results for three molecules from patent publication US20210040206A1.

Chain of SIRPa V5 (SNP9 + 10 + 11) recombinant protein, extracellular domain fused with mouse Fc from IgG2a (human; mouse) (P78324 31-373 D95E/L96S limits assumed): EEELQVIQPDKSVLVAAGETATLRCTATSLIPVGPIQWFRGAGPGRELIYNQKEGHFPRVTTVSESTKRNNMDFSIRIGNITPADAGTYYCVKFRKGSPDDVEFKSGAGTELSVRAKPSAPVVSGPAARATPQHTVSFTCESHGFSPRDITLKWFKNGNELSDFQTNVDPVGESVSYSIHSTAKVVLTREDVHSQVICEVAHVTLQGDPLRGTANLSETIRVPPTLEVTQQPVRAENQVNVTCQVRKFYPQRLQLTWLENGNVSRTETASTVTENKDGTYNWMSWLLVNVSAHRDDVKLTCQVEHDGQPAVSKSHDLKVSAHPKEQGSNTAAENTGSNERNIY
Chain of SIRPa V3 (SNP1 + 2 + 3 + 4 + 5 + 6) recombinant protein, extracellular domain fused with mouse Fc from IgG2a (human; mouse) (P78324 other isoform, or with tags, fused parts or gaps limits assumed): as the sequence (P78324 31-373 D95E/L96S limits assumed) above, with L14S, T20S, T22I, R24H, A27V, E65D, S66L counted along it
Chain of SIRPa V4 (SNP8) recombinant protein, extracellular domain fused with mouse Fc from IgG2a (human; mouse) (P78324 31-373 G75A limits assumed): as the sequence (P78324 31-373 D95E/L96S limits assumed) above, with G45A, E65D, S66L counted along it
Chain of SIRPa V6 (SNP12 + 13) recombinant protein, extracellular domain fused with mouse Fc from IgG2a (human; mouse) (P78324 31-373 N100E limits assumed): as the sequence (P78324 31-373 D95E/L96S limits assumed) above, with E65D, S66L, N70E counted along it
Chain of SIRPa V1 recombinant protein (extracellular domain fused with mouse Fc from IgG2a) (human; mouse) (P78324 31-373 limits assumed): as the sequence (P78324 31-373 D95E/L96S limits assumed) above, with E65D, S66L counted along it
Chain of SIRPv2 (human;mouse) (P78324 31-373): as the sequence (P78324 31-373 D95E/L96S limits assumed) above, with E65D, S66L counted along it
Chain of SIRPa v2 (antigen of the ELISA of FIG. 9B) (human) (P78324 other isoform, or with tags, fused parts or gaps limits assumed): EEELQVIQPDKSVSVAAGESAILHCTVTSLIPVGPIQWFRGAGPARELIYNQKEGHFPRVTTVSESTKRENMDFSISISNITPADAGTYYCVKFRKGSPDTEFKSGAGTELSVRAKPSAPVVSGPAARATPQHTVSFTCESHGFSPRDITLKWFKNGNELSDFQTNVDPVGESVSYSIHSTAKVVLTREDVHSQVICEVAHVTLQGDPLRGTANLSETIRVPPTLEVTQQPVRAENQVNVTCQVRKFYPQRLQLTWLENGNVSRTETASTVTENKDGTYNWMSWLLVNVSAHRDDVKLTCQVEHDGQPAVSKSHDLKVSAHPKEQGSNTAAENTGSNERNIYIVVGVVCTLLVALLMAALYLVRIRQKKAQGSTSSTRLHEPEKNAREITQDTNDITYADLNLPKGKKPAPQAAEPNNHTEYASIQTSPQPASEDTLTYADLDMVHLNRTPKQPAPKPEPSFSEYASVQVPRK
Chain of SIRPa V7 (SNP14 + ?) recombinant protein, extracellular domain fused with mouse Fc from IgG2a (human; mouse) (P78324 31-373 R107S/G109S limits assumed): as the sequence (P78324 31-373 D95E/L96S limits assumed) above, with E65D, S66L, R77S, G79S counted along it

B1: in-house anti-human SIRPa v1 antibody (antibody, human IgG4, V domains shown)
VH: EVQLVQSGAEVKKPGESLRISCKASGYSFTSYWVHWVRQMPGKGLEWMGNIDPSDSDTHYSPSFQGHVTLSVDKSISTAYLQLSSLKASDTAMYYCVRGGTGTLAYFAYWGQGTLVTVSS
VL: DVVMTQSPLSLPVTLGQPASISCRSSQSLVHSYGNTYLYWFQQRPGQSPRLLIYRVSNRFSGVPDRFSGSGSGTDFTLKISRVEAEDVGVYYCFQGTHVPYTFGGGTKVEIK
Take B1: in assay [1], the IC50 (read off the curve) is 100 ng/mL. Further, in [2], the reduction of CD47-Fc binding came out at 50%.

B2: chimeric 18D5 antibody (antibody, from a related filing, V domains shown)
VH: QVQLQQPGAELVRPGSSVKLSCKASGYTFTSYWVHWVKQRPIQGLEWIGNIDPSDSDTHYNQKFKDKASLTVDKSSSTAYMQLSSLTFEDSAVYYCVRGGTGTMAWFAYWGQGTLVTVSA
VL: DVVMTQTPLSLPVSLGDQASISCRSSQSLVHSYGNTYLYWYLQKPGQSPKLLIYRVSNRFSGVPDRFSGSGSGTDFTLKISRVEAEDLGVYFCFQGTHVPYTFGSGTKLEIKR
One may read the EC50 as the concentration at which the effect is half-maximal. Molecule B2 had an EC50 in assay [3] of 5720 ng/mL.

B3: Kwar antibody (antibody, from a related filing, V domains shown)
VH: EVQLQQSGAELVKPGASVKLSCTASGFNIKDYYIHWVQQRTEQGLEWIGRIDPEDGETKYAPKFQDKATITADTSSNTAYLHLSSLTSEDTAVYYCARWGAYWGQGTLVTVSS
VL: QIVLTQSPAIMSASPGEKVTLTCSASSSVSSSYLYWYQQKPGSSPKLWIYSTSNLASGVPARFSGSGSGTSYSLTISSMEAEDAASYFCHQWSSYPRTFGAGTKLELK
In the case of B3, the EC50 in [4] was 0.78 ng/mL; in [5] it was 0.6 ng/mL; in assay [6], 0.77 ng/mL; with SIRPv2 (human;mouse), 0.77 ng/mL; in assay [7] it was 0.77 ng/mL; in assay [8], 0.74 ng/mL. The EC50 was 0.75 ng/mL in assay [9] and 0.93 ng/mL in [10].
